One data set deals with His249 (UniProt position 249, PGVGTHVADCI). The data set can be described thus: NMR. The following applies: 25 °C; 50 mM NaCl; 20 mM sodium phosphate (starting pH 6.8; pH adjusted with HCl or NaOH); 0.1 mM 13C-labelled hOGG1(K249H); no DNA is mentioned in the sample (apparently free enzyme).
The target of another data set is Asp268 (UniProt position 268, QAVPVDVHMWH). The data set can be described thus: kinetics. The following applies: 15 °C; 100 mM NaCl; 50 mM citric acid-Na2HPO4; Single-turnover conditions: 10 µM hOGG1(K249H) with 5.0 µM oxoG-containing DNA duplex F-oG23/C23 (substrate-bound enzyme).

Broadly, the pKa is the pH at which an ionisable group is half protonated. Consider “8-oxoguanine DNA glycosylase 1 (hOGG1), K249H mutant (Homo sapiens; K249H)”, for which the pKa is on record as 5.54 ± 0.05 with His249 and 4.5 ± 0.39 with Asp268.
